The source of these data is US20120028912A1 (NEW YORK UNIVERSITY AND THE RESEARCH FOUNDATION OF THE …, published 2012).

Usually Kd stands for a measure of binding affinity in units of concentration.

Assay [1] has as its target T1, N-terminal biotinylated and lysine-acetylated Tat peptide (Tat AcK50) (HIV-1).
T1 construct: also called biotinylated and wild type Tat peptide; Tat peptide containing AcK50
Kind of assay: pull-down with the biotinylated Tat-K50ac peptide on streptavidin agarose, anti-GST Western blot. In general terms: A western blot detects proteins with antibodies after separation by electrophoresis.

Assay [2] has as its target T2, Tat AcK50 peptide SYGR-AcK-KRRQRC (SEQ ID NO:50) (HIV-1).
T2 construct: Synthetic peptide
The assay can be described thus: NMR 2D 1H-15N HSQC.

Assay [3] deals with p300/CBP-associated factor (P/CAF), HA-tagged (human, UniProt Q92831 1-832). Kind of assay: co-immunoprecipitation from cells with anti-FLAG (FLAG-Tat), western blot with anti-HA (HA-P/CAF).
Assay [4] concerns the target T1, N-terminal biotinylated and …. The assay can be described thus: pull-down with the N-terminal biotinylated, lysine-acetylated Tat peptide on streptavidin agarose, anti-GST western blot.

B1: CBP (1082-1317) (other)
chain: KKIFKPEELRQALMPTLEALYRQDPESLPFRQPVDPQLLGIPDYFDIVKNPMDLSTIKRKLDTGQYQEPWQYVDDVWLMFNNAWLYNRKTSRVYKFCSKLAEVFEQEIDPVMQSLGYCCGRKYEFSPQTLCCYGKQLCTIPRDAAYYSYQNRYHFCEKCFTEIQGENVTLGDDPSQPQTTISKDQFEKKKNDTLDPEPFVDCKECGRKMHQICVLHYDIIWPSGFVCDNCLKKTGR
notes: also called GST-fusion CBP bromodomain-containing construct, residues 1082-1317 (lane 4); not shown: GST tag and linker of the pGEX4T-3 vector
On to B1, for which the binding result in assay [1] was “no binding”.

B2: bromodomain of P/CAF (residues 719-832 of SEQ ID NO:2) (other)
chain: SKEPRDPDQLYSTLKSILQQVKSHQSAWPFMEPVKRTEAPGYYEVIRFPMDLKTMSERLKNRYYVSKKLFMADLQRVFTNCKEYNAAESEYYKCANILEKFFFSKIKEAGLIDK
notes: also called P/CAF bromodomain; PCAF bromodomain
Turning to B2, the Kd in assay [2] is approximately 20 µM.

B3: TIF16 (702-812) (other)
chain: RKCERVLLALFCHEPCRPLHQLATDSTFSLDQPGGTLDLTLIRARLQEKLSPPYSSPQEFAQDVGRMFKQFNKLTEDKADVQSIIGLQRFFETRMNEAFGDTKFSAVLVEP
notes: also called GST-fusion TIF1b bromodomain construct, residues 702-812 (lane 5); not shown: GST tag and linker of the pGEX4T-3 vector
For the molecule B3, the binding result in assay [1] is given as “no binding”.

B4: TIF16 (624-812) (other)
chain: SATICRVCQKPGDLVMCNQCEFCFHLDCHLPALQDVPGEEWSCSLCHVLPDLKEEDGSLSLDGADSTGVVAKLSPANQRKCERVLLALFCHEPCRPLHQLATDSTFSLDQPGGTLDLTLIRARLQEKLSPPYSSPQEFAQDVGRMFKQFNKLTEDKADVQSIIGLQRFFETRMNEAFGDTKFSAVLVEP
notes: also called GST-fusion TIF1b bromodomain-containing construct, residues 624-812 (lane 6); the sheet prints 'TIF16'; not shown: GST tag and linker of the pGEX4T-3 vector
As for B4, the binding result in assay [1] is given as “no binding”.

B5: HIV-1 Tat protein, wild type (other)
chain: MEPVDPRLEPWKHPGSQPKTASNNCYCKRCCLHCQVCFTKKGLGISYGRKKRRQRRRAPQDSKTHQVSLSKQPASQPRGDPTGPKESKKKVERETETDPED
notes: also called Tat-KK; wild type Tat
Turning to B5, in assay [3], the binding result is reported as “binds”.

B6: HIV-1 Tat double mutant K50R/K51R (other)
chain: MEPVDPRLEPWKHPGSQPKTASNNCYCKRCCLHCQVCFTKKGLGISYGRRRRRQRRRAPQDSKTHQVSLSKQPASQPRGDPTGPKESKKKVERETETDPED
notes: also called Tat-RR; Tat K50R/K51R mutant protein
For the molecule B6, the binding result in assay [3] is “no binding”.

B7: GST-fusion bromodomain from TIF1 (other)
chain: KLSPANQRKCERVLLALFCHEPCRPLHQLATDSTFSLDQPGGTLDLTLIRARLQEKLSPPYSSPQEFAQDVGRMFKQFNKLTEDKADVQSIIGLQRFFETRMNEAFGDTKFSAVLVEP
notes: domain: bromodomain; also called bromodomain of TIF1; TIF1b
Consider B7, for which, in assay [4], the binding result is recorded as “no binding”.
